Target: Nitrous oxide reductase NosZ (clade I) of Trinickia sp. Z7 (Trinickia sp. Z7)
Assay: cryo-EM structure

“Nitrous oxide reductase NosZ (clade I) of Trinickia sp. Z7 (enzyme)” gave a stoichiometry N of 2.

— article doi:10.64898/2025.12.16.694761
